For three substances, percent localized and percent bound to the sides of actin filaments results are on record in paper PMC3546673.

Assay [1] has as its target gelsolin-capped actin filaments (UniProt P68135). The assay can be described thus: single filament binding assay (fluorescence microscopy); gelsolin-capped actin filaments labeled with rhodamine-phalloidin, incubated with Alexa-488-conjugated trx-PT or mutant (5 μM), 22 °C, 30 min; diluted 1:50 and put on poly-L-lysine-coated coverslips.
In assay [2] the target is F-actin (actin filaments) (UniProt P68135). The experiment in a line: single filament binding assay (fluorescence microscopy); actin filaments from 1 μM G-actin with rhodamine-phalloidin (1 μM) and Alexa-488-labeled trx protein (5 μM), 22 °C, 30 min; diluted 1:50 and put on poly-L-lysine-coated coverslips.

Turning to trx-PT(35–165) (domain or fragment), the percent localized at a filament end in assay [1] amounted to 96%.
Substance trx-PT(125–165) (domain or fragment) yielded a percent bound to the sides of actin filaments in assay [2] of 98%.
For the substance “recombinant thioredoxin-phostensin (trx-PT) (natural protein)”, in assay [2], the percent localized at the filament end amounted to 96%.
